Test [1] deals with T1, single chain human CD3ε-26mer-CD3γ (CD3εγ) (human).
T1 construct: also called human CD3εγ
T1 chain: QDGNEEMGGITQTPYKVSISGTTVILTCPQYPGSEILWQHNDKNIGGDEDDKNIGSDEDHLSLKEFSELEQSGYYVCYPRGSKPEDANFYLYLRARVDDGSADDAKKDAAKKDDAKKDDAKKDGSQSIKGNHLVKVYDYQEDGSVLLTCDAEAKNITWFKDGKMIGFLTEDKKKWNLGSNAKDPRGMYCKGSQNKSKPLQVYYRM
The test is described as follows: Biacore full (multi-) cycle kinetics; reference of the ratio column. The source says:
(§1) In addition, position 95 in HVR-H3 was also mutated to serine, threonine, or glutamate. Variants with these single point mutations were expressed as Fabs in HEK293 cells and initially screened with a single cycle kinetics method on a Biacore T100. Selected variants were also scaled up and purified for a conventional multi-cycle kinetics method. For single cycle kinetics, Biacore Series S CM5 sensor chips were immobilized with anti-human Fab antibodies (Human Fab capture kit, GE Healthcare). […] For conventional multi-cycle kinetics, human CD3εγ, cyno CD3εγ, or a 27-mer peptide were immobilized on Biacore Series S CM5 sensor chip using the amine coupling kit from Biacore. Serial 3-fold dilutions of each Fab variant were injected at a flow rate of 30 μl/min. Each sample was analyzed with a protocol of 3-minute association and 3-minute dissociation. In both methods, the Biacore chips were regenerated using 10 mM Glycine (pH 1.7). Binding response was corrected by blank subtraction and a 1:1Languir model of simultaneous fitting of kₒₙ and koff was used for kinetics analysis.

The target of test [2] is T1, single chain human CD3ε-26mer-CD3γ …. The test is described as follows: Biacore full (multi-) cycle kinetics: antigen on chip, Fab injected; antigen not named on the sheet, taken as human CD3εγ.
Source text: as §1

Test [3] concerns the target T2, Q1A.
T2 construct: Residue number counts from the N-terminus of CD3ε; also called CD3εγ Q1A; CD3 mutant Q1A
T2 single chain CD3ε-26mer linker-CD3γ: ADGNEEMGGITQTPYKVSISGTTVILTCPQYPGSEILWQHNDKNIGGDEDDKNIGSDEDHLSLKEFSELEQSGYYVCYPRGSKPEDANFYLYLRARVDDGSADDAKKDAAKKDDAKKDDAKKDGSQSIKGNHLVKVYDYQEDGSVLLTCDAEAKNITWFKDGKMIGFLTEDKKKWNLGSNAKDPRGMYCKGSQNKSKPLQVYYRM
Description: SPR (Biacore 4000): CD3εγ variant captured from the periplasmic fraction on UCHT1v9; analyte a bispecific antibody with one 38E4v1 arm and one irrelevant arm, 0.39-100 nM. As for the experimental part: (§2) The secreted CD3εγ variants were captured from the crude periplasmic fraction using anti-CD3 antibody UCHT1v9. UCHT1v9 was immobilized on a CM5 serios S chip through amine coupling using the anti-human IgG (Fc) antibody capture kit (BR-1008-39) from GE Healthcare. SPR measurements were performed on the Biacore 4000 instrument, utilizing kinetic evaluation software. In order to measure monovalent binding affinities, anti-CD3 bispecific antibodies were used in which one arm was the anti-CD3 to be tested and the arm recognized an irrelevant antigen. The bispecific anti-CD3 antibodies were passed over the captured supernatant in a concentration series of two-fold dilutions from 0.39 to 100 nM. The resulting kinetics (FIG. 13D) were measured and calculated using Biacore 4000 BIAevaluation software (product code 28-9664-57).

In test [4] the target is T3, D2A.
T3 construct: Residue number counts from the N-terminus of CD3ε; also called CD3εγ D2A; CD3 mutant D2A
T3 single chain CD3ε-26mer linker-CD3γ: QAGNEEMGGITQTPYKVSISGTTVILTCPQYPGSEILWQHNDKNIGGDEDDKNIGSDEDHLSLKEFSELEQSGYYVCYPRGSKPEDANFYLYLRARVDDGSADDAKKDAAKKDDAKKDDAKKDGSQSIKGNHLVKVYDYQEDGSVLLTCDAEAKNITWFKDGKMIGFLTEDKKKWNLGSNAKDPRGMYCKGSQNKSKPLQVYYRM
Described as above. As for the experimental part: as §2

Test [5] has as its target T4, E6A.
T4 construct: Residue number counts from the N-terminus of CD3ε; also called CD3εγ E6A; CD3 mutant E6A
T4 single chain CD3ε-26mer linker-CD3γ: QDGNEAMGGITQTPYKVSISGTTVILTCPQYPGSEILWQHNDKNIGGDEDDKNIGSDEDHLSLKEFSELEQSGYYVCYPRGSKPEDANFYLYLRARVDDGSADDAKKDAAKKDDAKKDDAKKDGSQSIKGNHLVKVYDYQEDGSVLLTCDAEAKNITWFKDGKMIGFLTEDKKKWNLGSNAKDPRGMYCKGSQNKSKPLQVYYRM
Described as above. On the procedure:
as §2

Test [6] has as its target T5, M7A.
T5 construct: Residue number counts from the N-terminus of CD3ε; also called CD3εγ M7A
T5 single chain CD3ε-26mer linker-CD3γ: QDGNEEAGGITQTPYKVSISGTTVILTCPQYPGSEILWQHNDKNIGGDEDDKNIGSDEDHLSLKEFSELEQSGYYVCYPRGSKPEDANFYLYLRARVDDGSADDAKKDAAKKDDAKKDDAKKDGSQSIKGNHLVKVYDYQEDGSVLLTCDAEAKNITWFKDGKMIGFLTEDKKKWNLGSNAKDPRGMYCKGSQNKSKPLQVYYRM
The test is described as above. On the procedure: as §2

Test [7] concerns the target T6, G9A.
T6 construct: Residue number counts from the N-terminus of CD3ε; also called CD3εγ G9A
T6 single chain CD3ε-26mer linker-CD3γ: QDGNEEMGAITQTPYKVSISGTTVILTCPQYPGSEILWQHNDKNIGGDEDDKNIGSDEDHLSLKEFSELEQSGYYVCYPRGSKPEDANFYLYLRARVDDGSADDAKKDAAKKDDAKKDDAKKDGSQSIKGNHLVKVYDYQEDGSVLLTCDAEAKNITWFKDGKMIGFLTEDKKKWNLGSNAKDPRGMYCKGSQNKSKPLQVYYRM
The description is as above. As for the experimental part: as §2

B1: hu38E4.v1 Fab (Fab, V domains shown)
VH: EVQLVQSGAEVKKPGASVKVSCKASGFTFTSYYIHWVRQAPGQGLEWIGWIYPENDNTKYNEKFKDRVTITADTSTSTAYLELSSLRSEDTAVYYCARDGYSRYYFDYWGQGTLVTVSS
VL: DIVMTQSPDSLAVSLGERATINCKSSQSLLNSRTRKNYLAWYQQKPGQSPKLLIYWTSTRKSGVPDRFSGSGSGTDFTLTISSLQAEDVAVYYCKQSFILRTFGQGTKVEIK
notes: Humanized anti-CD3 Fab; Point mutants of it were expressed as Fabs in HEK293 cells
Take B1: the “ratio (fold)” value in test [1] is 1 fold. Besides, the Kd turned out to be 0.8 nM in test [2]; 1000 nM in test [3]; 1500 nM in test [4]; 65 nM in test [5]; 13 nM in test [6]; 6 nM in test [7]. In addition, the koff in test [2] was determined as 0.00433 s⁻¹. This molecule also showed a kon in test [2] of 5.44e+06 M⁻¹ s⁻¹.

The values are drawn from patent US20200299408A1 (Genentech, published 2020).
